Assay [1] deals with T1, human CD3 (human, UniProt P07766 23-207; P04234 22-171; P09693 23-182).
T1 construct: whole, on cells; also called hCD3; CD3 on Jurkat cells
Put plainly: FACS on Jurkat cells.

In assay [2] the target is T1, human CD3. Put plainly: cell-based or functional assay.

Consider 6 molecules from patent US20250223358A1 (ANTENGENE BIOLOGICS, published 2025).

T1 sequence (P07766 23-207, chain 1 of 3): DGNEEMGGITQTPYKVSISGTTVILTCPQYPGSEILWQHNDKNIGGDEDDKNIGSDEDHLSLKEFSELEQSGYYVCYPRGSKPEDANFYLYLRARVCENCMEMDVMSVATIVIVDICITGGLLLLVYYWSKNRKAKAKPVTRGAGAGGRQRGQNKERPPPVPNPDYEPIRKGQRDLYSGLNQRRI
T1 sequence (P04234 22-171, chain 2 of 3): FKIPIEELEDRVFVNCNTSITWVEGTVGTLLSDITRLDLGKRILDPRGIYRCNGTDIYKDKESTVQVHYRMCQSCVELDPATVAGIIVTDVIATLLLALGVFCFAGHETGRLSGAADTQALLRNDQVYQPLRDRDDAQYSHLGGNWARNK
T1 sequence (P09693 23-182, chain 3 of 3): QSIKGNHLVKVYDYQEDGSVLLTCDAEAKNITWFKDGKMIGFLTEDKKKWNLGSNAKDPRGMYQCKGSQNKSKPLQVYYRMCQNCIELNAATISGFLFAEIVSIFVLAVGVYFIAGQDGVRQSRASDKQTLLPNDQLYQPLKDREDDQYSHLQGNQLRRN

B1: hu40E9-L2H3 (antibody, V domains shown)
VH: EVQLVQSGAEVKKPGSSVKVSCKASGYTFSSYVIHWVRQAPGQGLEWMGYINPYNDVIKYNEKFKGRVTLTSDKSTSTAYMELSSLRSEDTAVYYCARDSYYSYDGFAYWGQGTLVTVSS
VL: EIVLTQSPDFQSVTPKEKVTITCSASSSVSYMHWYQQKPDQSPKRLIYDTSKLASGVPSRFSGSGSGTDFTLTINSLEAEDAATYYCQQWSSNPPTFGGGTKVEIK
notes: humanized 40-C12-C10-E9
On to B1, for which, in the assay with human CD3 [1], the EC50 (as a rule, the midpoint of the concentration-response curve) is 0.65 nM and the “Top FACS signal” value was found to be 1580. In the assay with human CD3 [2], the “EC50_Fold change (Jurkat-NFAT-luciferase activation, normalized to ch40-C12-C10-E9)” value is 2.43 fold and the “Top FACS signal_Fold change (Jurkat-NFAT-luciferase activation, normalized to ch40-C12-C10-E9)” value is 1.18 fold.

B2: hu40E9-L2H2 (antibody, V domains shown)
VH: EVQLVQSGAEVKKPGSSVKVSCKASGYTFSSYVIHWVRQAPGQGLEWMGYINPYNDVIKYNEKFKGRVTITADKSTSTAYMELSSLRSEDTAVYYCARDSYYSYDGFAYWGQGTLVTVSS
VL: EIVLTQSPDFQSVTPKEKVTITCSASSSVSYMHWYQQKPDQSPKRLIYDTSKLASGVPSRFSGSGSGTDFTLTINSLEAEDAATYYCQQWSSNPPTFGGGTKVEIK
notes: humanized 40-C12-C10-E9
As to B2, in the assay with human CD3 [1], the EC50 turned out to be 0.81 nM and the “Top FACS signal” value came out at 1570. In addition, in the assay with human CD3 [2], the “EC50_Fold change (Jurkat-NFAT-luciferase activation, normalized to ch40-C12-C10-E9)” value amounted to 2.14 fold and the “Top FACS signal_Fold change (Jurkat-NFAT-luciferase activation, normalized to ch40-C12-C10-E9)” value came out at 1.28 fold.

B3: hu40E9-L2H3-D99E.H (antibody, V domains shown)
VH: EVQLVQSGAEVKKPGSSVKVSCKASGYTFSSYVIHWVRQAPGQGLEWMGYINPYNDVIKYNEKFKGRVTLTSDKSTSTAYMELSSLRSEDTAVYYCARESYYSYDGFAYWGQGTLVTVSS
VL: EIVLTQSPDFQSVTPKEKVTITCSASSSVSYMHWYQQKPDQSPKRLIYDTSKLASGVPSRFSGSGSGTDFTLTINSLEAEDAATYYCQQWSSNPPTFGGGTKVEIK
As to B3, in the assay with human CD3 [1], the response was half-maximal at 0.31 nM (EC50) and the “Top FACS signal” value stood at 957. For the same molecule, in the assay with human CD3 [2], the “EC50_Fold change (Jurkat-NFAT-luciferase activation, normalized to ch40-C12-C10-E9)” value was found to be 1.19 fold and the “Top FACS signal_Fold change (Jurkat-NFAT-luciferase activation, normalized to ch40-C12-C10-E9)” value was 0.91 fold.

B4: hu40E9-L2H3-D56G.H (antibody, V domains shown)
VH: EVQLVQSGAEVKKPGSSVKVSCKASGYTFSSYVIHWVRQAPGQGLEWMGYINPYNGVIKYNEKFKGRVTLTSDKSTSTAYMELSSLRSEDTAVYYCARDSYYSYDGFAYWGQGTLVTVSS
VL: EIVLTQSPDFQSVTPKEKVTITCSASSSVSYMHWYQQKPDQSPKRLIYDTSKLASGVPSRFSGSGSGTDFTLTINSLEAEDAATYYCQQWSSNPPTFGGGTKVEIK
For B4, in the assay with human CD3 [1], the EC50 came out at 0.32 nM and the “Top FACS signal” value was determined as 1450. In addition, in the assay with human CD3 [2], the “EC50_Fold change (Jurkat-NFAT-luciferase activation, normalized to ch40-C12-C10-E9)” value is 0.65 fold and the “Top FACS signal_Fold change (Jurkat-NFAT-luciferase activation, normalized to ch40-C12-C10-E9)” value worked out at 0.82 fold.

B5: hu40E9-L2H1 (antibody, V domains shown)
VH: EVQLVQSGAEVKKPGSSVKVSCKASGGTFSSYVIHWVRQAPGQGLEWMGYINPYNDVIKYNEKFKGRVTITADKSTSTAYMELSSLRSEDTAVYYCARDSYYSYDGFAYWGQGTLVTVSS
VL: EIVLTQSPDFQSVTPKEKVTITCSASSSVSYMHWYQQKPDQSPKRLIYDTSKLASGVPSRFSGSGSGTDFTLTINSLEAEDAATYYCQQWSSNPPTFGGGTKVEIK
notes: humanized 40-C12-C10-E9
As to B5, in the assay with human CD3 [1], the concentration for a half-maximal effect (EC50) is 0.73 nM and the “Top FACS signal” value was found to be 892. Also, in the assay with human CD3 [2], the “EC50_Fold change (Jurkat-NFAT-luciferase activation, normalized to ch40-C12-C10-E9)” value came to 5.73 fold and the “Top FACS signal_Fold change (Jurkat-NFAT-luciferase activation, normalized to ch40-C12-C10-E9)” value amounted to 1.37 fold.

B6: hu40E9-L2H3-D105E.H (antibody, V domains shown)
VH: EVQLVQSGAEVKKPGSSVKVSCKASGYTFSSYVIHWVRQAPGQGLEWMGYINPYNDVIKYNEKFKGRVTLTSDKSTSTAYMELSSLRSEDTAVYYCARDSYYSYEGFAYWGQGTLVTVSS
VL: EIVLTQSPDFQSVTPKEKVTITCSASSSVSYMHWYQQKPDQSPKRLIYDTSKLASGVPSRFSGSGSGTDFTLTINSLEAEDAATYYCQQWSSNPPTFGGGTKVEIK
In the case of B6, in the assay with human CD3 [1], the concentration for a half-maximal effect (EC50) is 1.16 nM and the “Top FACS signal” value worked out at 1410. Also, in the assay with human CD3 [2], the “EC50_Fold change (Jurkat-NFAT-luciferase activation, normalized to ch40-C12-C10-E9)” value turned out to be 3.77 fold and the “Top FACS signal_Fold change (Jurkat-NFAT-luciferase activation, normalized to ch40-C12-C10-E9)” value is 0.74 fold.
